Reference: the DeepSol protein solubility set

Test: soluble on expression in E. coli; label from the status in PepcDB or PDB records

Sequence	soluble on expression in E. coli
MAHHHHHHMLLGSFADFSVNGASTVDMPLAPSLEYVARMLRELPSVLHAEQWPTQFVCDSNAPLSGSGTELRNAEAITSSSSSVLERTLLGISPLSGTDAAVSQFLERLGGATTSLALRSLFDLCHADVWNLLGVAATSPISRLAALEKLAAAANGSASAPGPCRPVLDAETLEFKDILVWAWNRQYGCVGLRRLFFEMQVLFYRYAMNAQATSKQSRAGNGATLRDVCELWAVWRLSLQKWSAAFLAKLGTHEQTADVLDASTLRADACDLMRQHAIAVSGLAEVQRMALRVITKLQTVDAKGWFAVPAFDLVNVDFTSVRYWISSPVFARKSKREAYRSLCRTLERMVDSCVQKYGPTHAFSDVITTVRQQLVDVARAEGLL	not soluble
MGSDKIHHHHHHMVRQFLPLNGLRAFEASARHLSFTRAAIELCVTQAAVSQQVKGLEKRLGVALFQRLPRGLKITAEGEALLPTVTSSFDQMATTLDRIEAGQVRELLFLGVVGTFAVGWLLPRLAAFQKRHPFIDVRVSTNNNRVDMAAEGLDFAIRFGQGSWHGTDAFRLFEAPLSPLCTPKLAEMLKEPADLMDATLLRSYRADEWSTWFAAAGVSPAAQVNAGIVFDTSLGMMEAALQGLGVALAPPSMFSRHLTSGAVMQPFPVTISLGSYWLTRLQSKPQTSAMQAFSDWLLETIGTA	not soluble
MALTVSLLDKLIDSDPTTREEKDFPVSQQHMLNGLLRDLESMLNSRIGWKNIHEDFLEVRYSILNYGLPDFSSMPYSSQDGQSQLCDIVYEAIREFEPRLRNPHVQISDEKNAIDRTLRLEISATCLIDNDIHELRFNSEVEPVNLGMKLSRAK	not soluble
SLPKFGIEKRYNAAKSDIVSYLEKNNRNTSLGARFDMWENALIAIKEAPIFGHGSDGYDEFRHKQVKSKQMAKTTLNFGSLHNQYLESWVKRG	not soluble
MRKNISENNGKRPGSVKSRFLVSAFAVFLVAYSQTGRSSEEVLEQYKSLFAQQQKEFEKQRQIIIEQGKEIEKLKSRLDSLITTQPTDRSPASNVAGKDGQRPPQVSSPSTPKTVVAGPVGKKNDQVQTRTVPGNLPAGPVGQAPPKQDEKPRPPEMPRLSDAVGGVLTRKGKIVVEPALEYAFTDSNRIFLDAFTFLPAIAIGLIDVRQVDQHSLMASIGARYGVTDRLEVEARVPYRARFDEQRSRPVSIGAGIDETFNASGNGLGDIEFAARYQLNSGAGGWPILVGNMRATVPTGKGPFDIKYAQAQGVPGAVFPTEVPTGSGFFSFEPSVTALYATDPAVFFANLAYNYNMGTTEKALDGSGDKFKVDPGYAVGMTFGMGFGINERSSFNIGYGHRHIFNTKINNRTLKGSQLDIGQLLLGYAFKYSQQTTLNFSIAIGTTDDAQDVRLSFRVPMTFLEHHHHHH	soluble
MNIVITGGTGLIGRHLIPRLLELGHQITVVTRNPQKASSVLGPRVTLWQGLADQSNLNGVDAVINLAGEPIADKRWTHEQKERLCQSRWNITQKLVDLINASDTPPSVLISGSATGYYGDLGEVVVTEEEPPHNEFTHKLCARWEEIACRAQSDKTRVCLLRTGVVLAPDGGILGKMLPPFRLGLGGPIGSGRQYLAWIHIDDMVNGILWLLDNELRGPFNMVSPYPVRNEQFAHALGHALHRPAILRVPATAIRLLMGESSVLVLGGQRALPKRLEEAGFAFRWYDLEEALADVVR	soluble
MMGMAVSTKLSIDEVNMLEKEDFVTKIGPIFEHSPWVAERAWAHRPFTSAENMYECMLEKVYEADKRLQLALLRAHPDLGTRLEISETSQSEQQRAGLSQLTEEEFAVFAELNKCYVDTFRFPFIMAVRGQTKNSIKEQMRKRLVNDEEQERKTALREVAKIAKFRLADLVVMGSRSLEHHHHHH	soluble
MSLIFNKNCNVNKETQIEAFAIKNHDKKFVYPMGNIIGVKANTDGVLVLGYEEEDVDYIGGIQIGDNIVKIDNKRIKNSQDVSEILNKIKKSKVEVTFERKNKYKTEVIETKKENGKYKLGLWVRDKISGIGTMTFYDPSMEKFKAIGHAIKDSDTNELLKIKQGYIYKPEQLKIVKASNEKVGKIKGDFNDSNLMGNFSNNSELGISGNITENHNKEFNVANKEKQLIEVGRPQDVKIGDAVILFEDKNKNITSYDIKIESIVYDKGNYRDMVIKVVDDKLLEYTGGIVQGMSGAPIIQNNKIIGAITHVFRDNPKKGYGIFIDEMIKLEGHHHHHH	soluble
MSRDPTYTINEHDLSFADGRFYVTFKADKSSETVRLNSSCLGNTIIKKLQVEDDNTMHDFVKPKVTTQQAFGLAQQVKELDLQLKDPKSDLWGKIKFNNKAMLVEYANKEMSSAIAQSAEQILLQVKSIDDERYSKFEQTLNGIKQTVKSESVESARTQLASMFDSRISGLDGKYSRLSQTIDSLSSRLDDGVGNYSTLSQKVSGIDLRVSNAANDVSRLSQTAQGLQSQITNANQNYSSLSQTVQGLQTTVRDNQSNATSRINQLSDLISTKVSKGDVETTIAQSYDKIAFAIRDKLPASKMSGSEIISAINLDRSGVKITGKNITLDGNSYISNAVIKDAHIANMDAGKINTGYLNANRIATEAITGEKIKMDYAFFNKLTANEGYFRTLFAKDIFATSVQSVTLSASKITGGVLAATNGASQWDLNNANMTFNRDATINFNSKNNALVRKDGTHTAFVHFSNATPKGYRGSALYASIGITSSGDGIDSASSGRFAGLRSFRYATGYNHTAAVDQTELYGDNVLIADDFNINRGFKFRPDKMEKVLDMNDLYAAVVALGRCWGHLANVGWNT	not soluble
MNEKQKRFADEYIMNGCNGKKAAISAGYSKKTAESLASRLLRNVNVSEYIKERLEQIQEERLMSITEALALSASIARGEPQEAYSKKYDHLNDEVEKEVTYTITPTFEERQRSIDHILKVYGAYIDKKEITQKNIEINIGEYDDES	not soluble
MNNHFKCIGIVGHPRHPTALTTHEMLYRWLCTKGYEVIVEQQIAHELQLKNVKTGTLAEIGQLADLAVVVGGDGNMLGAARTLARYDIKVIGINRGNLGFLTDLDPDNAQQQLADVLEGHYISEKRFLLEAQVCQQDCQKRISTAINEVVLHPGKVAHMIEFEVYIDEIFAFSQRSDGLIISTPTGSTAYSLSAGGPILTPSLDAITLVPMFPHTLSARPLVINSSSTIRLRFSHRRNDLEISCDSQIALPIQEGEDVLIRRCDYHLNLIHPKDYSYFNTLSTKLGWSKKLFMAGDPLEHHHHHH	soluble
MGSDKIHHHHHHMNAHTNSQANTNVTNVVFRTHTQPDEAASKKAGRPIFTDIEVCDITFPANRQTRATFPAHDAEPNATRESMANGGGVMTYAQVYNAQYLAYKSGVAQPMGGTPLSEAPFLTESKRRELKALNVHTVEALASLDGMPLKQLGMGGRELKNQAVAYIDNAAGSADVTNLAAQVAILTQQLAEERRMREEFTNAALARRERIKAGEEIEDDEQPEDDEPAELEPEPDDFEPVLPPTFAEIDAMDDEALKVYIAKETGSRPRGNPNRDTLVAAAKELAS	not soluble
MGSDKIHHHHHHENLYFQGMSKVFVNISLSLDGFMAPEGMDMAHFSDPTYKNWGAKWGALMAWALSQQYLREKLKLGTGGETGPVNDMVRHTFERTGAHIMGKRMFEGGERGWPEEAPFHTPVYVLTHERRNPWVRPGGTTFYFVNDGPEQALALAREAAGERDIRISGGANVIQQYLNLGLVDELEIALIPVIFGGGRRLFENLHEPLPQFRIDRVLASPTATHLRYVRL	soluble
MNNIRLLNQNDLDSYIELMKFGHHNYEWDRYYLENVSIDRLKTILSNHTDYWNIFGAFEDDELVATCTLKQMNYVGKCHKAILENNFVKNNDEIVNRELINHIIQYAKEQNIETLMIAIASNNISAKVFFSSIGFENLAFEKNASKIGNEYFDENWLIYSTTE	not soluble
MANELATEGASGVDAPRIGPRLKAARQAQRLTLDDLAASCGITKGYLSKIERDHASASVATLVRICAALNIPVGSLFESSAAGEVVRADNYPPISFGGERMAEFLLTPFGERRIQSLLSRIEPGGGSGSETYELPVDVAFVYVVSGRICISFNGPGAGEDVSLATGDAFTFSPQLPHSFRALGDDTATVLWILTPALPDDVRPTSR	not soluble
PVPPLPEHGGKVRFGLIPEEFFQFLYPKTGVTGPYVLGTGLILYLLSKEIYVITPETFSAISTIGFLVYIVKKYGASVGEFADKLNEQKIAQLEEVKQASIKQIQDAIDMEKSQQALVQKRHYLFDVQRNNIAMALEVTYRERLHRVYREVKNRLDYHISVQNMMRQKEQEHMINWVEKRVVQSISAQQEKETIAKCIADLKLLSKKAQAQPVM	soluble
MKIAAIYTQSVGPLPDGEIRFENDWSGEIESNVLITGPNGCGKSTLLRAISLLWRAFGHWLGTGTRLNIKDESYTWFYRWDASCAMILDSFSPKSEDQIGLFLGSEAFLVQLKEKYPQVYWLGETVSRTKGTTPETTVFTSSEHFFLPYKNWWSHWSSQYQRLVLKGPSVDMPNLVYLDAEARRWVRPQKDIGSLSPDDSTQAWLATYEVNDNWKGQLESSLFNMKATMPGEYPEMIATLNQFFSGKRIEAEIHPGQRQRVLLDSGNDHSLDALSSGEHQVLIMLFTVQRWLQPGGVVLIDEPDLHLHPSLISPLLASIENIVARKNGQLVMTSHATDIWQRYDNMGLRIDLTDGKDAENGQR	not soluble
MGSDKIHHHHHHMIVLSKRELFAMLPSVDEVLSDNRIVEIINEYPRSLVLESVREVIDLKRQFILRLKEDASNSVTIEFGEIIESAIERVKLNYSLSLKKVINATGTVIHTNLGRSLLSEDIKDELWCAASRYSNLEYDLDNGERGSRYSHLTSTIKRLTGAEDVLVVNNNAAAVLLVLSTMAKGGEAIVSRGELVEVGGSFRIPSIMALSGAELVEVGSTNKTHLKDYKEAITEDTNVLMKVHTSNYRIMGFTESVSIEELVNLGKKYKLPVIEDLGSGVFIDLSKYGLSYEPTVLDSIRQGADVVTFSGDKMLGGPQAGIIVGKKEYIEKMKKNQLTRALRVDKLTICALEATLRMYLDETKAIENIPTLKMLTYKIEELEVKANKLFEKITALNLNANINIEDGFSQVGGGSMPLETISTKVISITPEHMNVSSLEKKLRLSEAHIIARVYDNKYVLDVRTIFDDEFDVIVEELRKAFN	not soluble
MASQNRDPAATSVAAARKGAEPSGGAARGPVGKRLQQELMTLMMSGDKGISAFPESDNLFKWVGTIHGAAGTVYEDLRYKLSLEFPSGYPYNAPTVKFLTPCYHPNVDTQGNISLDILKEKWSALYDVRTILLSIQSLLGEPNIDSPLNTHAAELWKNPTAFKKYLQETYSKQVTSQEP	soluble
MGSDKIHHHHHHMNLKQITYFLAVAEAGQMTAAAKQLHMAQPPLSYQLKALEDELGVRLFERGSRGVRLTGSGQQFMTYAQQIVETVAAAENAARRSGEGEIGTLALGLTSSAGDVLPKQKLQAFNRRYPQVEFALYEDNTYGILDKLRRNILDLAIVRTPFNDDGLASCRLSSDHMIAVAAASQPLPATLTIPDLKQQPLIVYRRFSSLFKTTFAEYGITPIIAVLCDDARTALHWAQMGMGVALVPATMAALASQQSHLAVIDYEPWVTHMTLVWQPEALHNPLVARFVGQLSGGESEKYSK	not soluble
MGSDKIHHHHHHMTDKLLKQHKRLLEQQHKLPYTINLSGEVFTIIIYTKLSKVAGVTVLNSQEEPATVKEAEAVVNRIQKYNFYFEYLGKRAHVIKERDSIIAEKIEQTQLILNDNTIFGEKMQPTIDELNLAMEVYKQQQRKMDVYQEDITLLNQKIKMQGEILEEDWESAENLSIAFAKAAYAQSIYLEATRKNRKQLAKWFHLHQKELPTDKQKALSKMVSVLSDTNAGLVFDQIISLRPLLEEGLMLDHEQSLTQRAAEFNKEFETHCRFYKPNINKVKNLIRQ	not soluble
